This is an account of results in JP2012100585A (dated 2012).

For experiment [1], the target named is T1, BSA (UniProt P02769 25-607).
T1 construct: Negative control antigen; also called BSA(陰性対照、シグマ社)
Description: ELISA, BSA on the plate, anti-V5 detection. For orientation: An ELISA detects its analyte on a solid surface through an enzyme-linked reagent.

Experiment [2] has as its target T2, 組換えヒトLOX−1タンパク質(61−273aa) (human, UniProt P78380 61-273). Description: ELISA on LOX-1 (61-273), anti-V5 detection; 4-parameter logistic fit.
The target in experiment [3] is T1, BSA. Description: ELISA, BSA on the plate.
For experiment [4], the target named is T2, 組換えヒトLOX−1タンパク質(61−273aa). Description: ELISA, LOX-1 (61-273) on the plate, HRP anti-mouse IgG detection.

T1 sequence (P02769 25-607 limits assumed): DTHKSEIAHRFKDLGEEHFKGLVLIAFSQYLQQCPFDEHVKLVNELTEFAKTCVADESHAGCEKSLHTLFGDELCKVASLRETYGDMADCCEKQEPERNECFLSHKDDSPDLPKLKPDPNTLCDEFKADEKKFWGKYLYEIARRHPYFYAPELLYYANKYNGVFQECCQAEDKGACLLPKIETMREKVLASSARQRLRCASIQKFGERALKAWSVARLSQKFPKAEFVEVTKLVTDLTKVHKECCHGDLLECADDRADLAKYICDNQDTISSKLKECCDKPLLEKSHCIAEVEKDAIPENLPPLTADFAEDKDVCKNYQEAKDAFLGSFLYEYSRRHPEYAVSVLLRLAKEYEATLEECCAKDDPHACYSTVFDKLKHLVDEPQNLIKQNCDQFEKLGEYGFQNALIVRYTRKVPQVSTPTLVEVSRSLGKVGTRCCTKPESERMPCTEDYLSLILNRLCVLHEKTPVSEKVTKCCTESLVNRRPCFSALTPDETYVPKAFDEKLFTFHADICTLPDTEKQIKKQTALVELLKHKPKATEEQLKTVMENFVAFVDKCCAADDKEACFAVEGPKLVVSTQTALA

B1: Fv型抗LOX−1抗体−ApoB断片融合タンパク質 Fv−B2 (other)
chain: EVKLLESGGGLVQPGGSLKLSCAVSGFDFSRYWMSWVRQAPGKGLEWIGEINPDSSTINFTPSLKDKFIVSRDNAKNTLYLQMSKVRSEDTALYYCARNDVLLGAMDYWGQGTSVTVSSGGGGSGGGGSGGGGSDVLMTQTPLSLPVSLGDQASISCRSSQTIVHSNGKTYLEWYLQKPGQSPKLLIYKVSNRFSGVPDRFSGSGSGTDFTLKISRVEAEDLGVYYCFQGSHVPLTFGAGTKLELKREIFNMARDQRSRATLYALSHAVNNYHKTNPTGTQELLDIANYLMEQIQDDCTGDEDYTYLILRVIGNMGQTMEQLTPELKSSILKCVQSTKPSLMIQKAAIQALRKMEPKDKDQEVLLQTFLDDASPGDKRLAAYLMLMRSPSQADINKIVQILPWEQNEQVKNFVASH
notes: Fusion of scFv (C-terminus) to ApoB fragment (N-terminus) through a linker; FreeStyle 293, His-tag purified; not shown: C-terminal V5 and 6xHis tag from the pEF6/V5/His vector
Regarding B1, in experiment [1], the binding result is reported as “no binding (tested: 1.6ng/mL〜100μg/mL)”. Also, in experiment [2], the “fold higher inflection-point concentration against Fv型抗体” value is ~27 倍.

B2: Fv型抗LOX−1抗体−ApoB断片融合タンパク質 Fv−B1 (other)
chain: EVKLLESGGGLVQPGGSLKLSCAVSGFDFSRYWMSWVRQAPGKGLEWIGEINPDSSTINFTPSLKDKFIVSRDNAKNTLYLQMSKVRSEDTALYYCARNDVLLGAMDYWGQGTSVTVSSGGGGSGGGGSGGGGSDVLMTQTPLSLPVSLGDQASISCRSSQTIVHSNGKTYLEWYLQKPGQSPKLLIYKVSNRFSGVPDRFSGSGSGTDFTLKISRVEAEDLGVYYCFQGSHVPLTFGAGTKLELKEEEMLENVSLVCPKDATRFKHLRKYTYNYEAESSSGVPGTADSRSATRINCKVELEVPQLCSFILKTSQCTLKEVYGFNPEGKALLKKTKNSEEFAAAMSRYELKLAIPEGKQVFLYPEKDEPTYILNIKRGIISALLVPPETEEAKQVLFLDTVYGNCSTHFTVKTRKGNVATEISTERDLGQCDRFKP
notes: as for B1
Take B2: the binding result in experiment [1] is “no binding (tested: 1.6ng/mL〜100μg/mL)”.

B3: Fv型抗LOX−1抗体−ApoB断片融合タンパク質 Fv−B3 (other)
chain: EVKLLESGGGLVQPGGSLKLSCAVSGFDFSRYWMSWVRQAPGKGLEWIGEINPDSSTINFTPSLKDKFIVSRDNAKNTLYLQMSKVRSEDTALYYCARNDVLLGAMDYWGQGTSVTVSSGGGGSGGGGSGGGGSDVLMTQTPLSLPVSLGDQASISCRSSQTIVHSNGKTYLEWYLQKPGQSPKLLIYKVSNRFSGVPDRFSGSGSGTDFTLKISRVEAEDLGVYYCFQGSHVPLTFGAGTKLELKTSGAYSNASSTDSASYYPLTGDTRLELELRPTGEIEQYSVSATYELQREDRALVDTLKFVTQAEGAKQTEATMTFKYNRQSMTLSSE
notes: as for B1
Regarding B3, in experiment [1], the binding result was “no binding (tested: 1.6ng/mL〜100μg/mL)”.

B4: Fv型抗LOX−1抗体 (scFv)
scFv: EVKLLESGGGLVQPGGSLKLSCAVSGFDFSRYWMSWVRQAPGKGLEWIGEINPDSSTINFTPSLKDKFIVSRDNAKNTLYLQMSKVRSEDTALYYCARNDVLLGAMDYWGQGTSVTVSSGGGGSGGGGSGGGGSDVLMTQTPLSLPVSLGDQASISCRSSQTIVHSNGKTYLEWYLQKPGQSPKLLIYKVSNRFSGVPDRFSGSGSGTDFTLKISRVEAEDLGVYYCFQGSHVPLTFGAGTKLELK
notes: VH gene was amplified with the #10-1 heavy chain secretion signal; Expressed in FreeStyle 293, purified by His tag; also called Fv型抗体; Fv; not shown: C-terminal V5 and 6xHis tag from the pEF6/V5/His vector
Turning to B4, in experiment [1], the binding result was “no binding (tested: 抗体濃度2ng/mL〜100μg/mL)”.

B5: Fv型抗LOX−1抗体−ApoB断片融合タンパク質 Fv−B4 (other)
chain: EVKLLESGGGLVQPGGSLKLSCAVSGFDFSRYWMSWVRQAPGKGLEWIGEINPDSSTINFTPSLKDKFIVSRDNAKNTLYLQMSKVRSEDTALYYCARNDVLLGAMDYWGQGTSVTVSSGGGGSGGGGSGGGGSDVLMTQTPLSLPVSLGDQASISCRSSQTIVHSNGKTYLEWYLQKPGQSPKLLIYKVSNRFSGVPDRFSGSGSGTDFTLKISRVEAEDLGVYYCFQGSHVPLTFGAGTKLELKGPQMSASVHLDSKKKQHLFVKEVKIDGQFRVSSFYAKGTYGLSCQRDPNTGRLNGESNLRFNSSYLQGTNQITGRYEDGTLSLTSTSDLQS
notes: as for B1
Turning to B5, the binding result in experiment [1] is recorded as “no binding (tested: 1.6ng/mL〜100μg/mL)”. Besides, the “fold higher inflection-point concentration against Fv型抗体” value in experiment [2] was ~7 倍.

B6: マウス抗LOX−1モノクローナル抗体#10−1 (antibody, V domains shown)
VH: EVKLLESGGGLVQPGGSLKLSCAVSGFDFSRYWMSWVRQAPGKGLEWIGEINPDSSTINFTPSLKDKFIVSRDNAKNTLYLQMSKVRSEDTALYYCARNDVLLGAMDYWGQGTSVTVSS
VL: DVLMTQTPLSLPVSLGDQASISCRSSQTIVHSNGKTYLEWYLQKPGQSPKLLIYKVSNRFSGVPDRFSGSGSGTDFTLKISRVEAEDLGVYYCFQGSHVPLTFGAGTKLELK
notes: also called 抗LOX−1抗体#10−1; マウス抗LOX−1抗体#10−1のIgG型
Take B6: the binding result in experiment [3] was “no binding (tested: 抗体濃度2ng/mL〜100μg/mL)”; in experiment [4], “binds”.
